# Positions count from the first letter of the chain named.
# T1: purified human glycophorin A protein (Sigma, cat # G5017) (human, UniProt P02724 20-150)
# T1 construct: mature; also called Sigma hGPA; Sigma GPA
# T1 sequence (looked up): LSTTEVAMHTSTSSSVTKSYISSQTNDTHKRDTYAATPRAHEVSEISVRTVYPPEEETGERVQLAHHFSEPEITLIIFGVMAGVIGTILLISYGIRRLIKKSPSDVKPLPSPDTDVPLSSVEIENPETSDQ
# T2: human glycophorin A in the red blood cell membrane (human, UniProt P02724 20-150)
# T2 construct: whole, on cells; used for intact RBC, isolated RBC membranes and transfected cells; the assay field tells which; also called GPA; hGPA
# T2 sequence (looked up): T1 sequence (looked up)
# T3: Rhesus monkey glycophorin A on Rhesus monkey red blood cells (Rhesus monkey, UniProt A0A1D5Q349 20-150)
# T3 construct: whole, on cells; also called Rhesus RBC; monkey GPA
# T3 sequence: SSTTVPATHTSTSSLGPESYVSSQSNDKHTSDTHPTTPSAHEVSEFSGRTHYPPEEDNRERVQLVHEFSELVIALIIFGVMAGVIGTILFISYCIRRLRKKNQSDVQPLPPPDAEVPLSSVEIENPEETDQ
# T4: human glycophorin A on human red blood cells or red blood cell membranes (human, UniProt P02724 20-150)
# T4 construct: whole, on cells; also called hRBC; human RBC membranes
# T4 sequence (looked up): T1 sequence (looked up)
# B1: Hu6C12-24 (antibody, V domains shown)
# VH: EVQLVQSGAEVKKPGASVKVSCKASGYTFTTYTIHWVRQAPGQGLEWIGYINPSSDYTRYNPKFKDRVTLTTDKSTSTAYMELRSLRSDDTAVYYCQTGTRDYWGQGTTVTVSS
# VL: DIQLTQSPSFLSASVGDRVTITCSAASSVSYIYWFQQKPGKAPKLLIYSTSTLPSGVPSRFSGSGSGTEYTLTISSLQPEDFATYYCHQRNSFPFTFGQGTKLEIK
# notes: IgG format; VH.1g + Vk.1b
# B2: TPP-7776, affinity matured 6C12 Fab (Fab, V domains shown)
# VH: B1 VH with T33A, I48M, D56G, D66G, L70M, T72R
# VL: B1 VL with S24R, A26S, S30R, S49A, P54R, F95Y
# notes: Tested as Fab
# B3: TPP-7796, affinity matured 6C12 Fab (Fab, V domains shown)
# VH: B1 VH with I48M, S54K, D56G, Y57W, D66G, L70M, T72R
# VL: B1 VL with S24R, A26S, S49A, P54Q, F95Y
# notes: Tested as Fab
# B4: TPP-7782, affinity matured 6C12 Fab (Fab, V domains shown)
# VH: B1 VH with I48M, D56G, D66G, L70M, T72R
# VL: B1 VL with S24R, A26S, S30R, S49A, T52F, L53R, P54Q, F95Y
# notes: Tested as Fab
# B5: TPP-7789, affinity matured 6C12 Fab (Fab, V domains shown)
# VH: B1 VH with I48M, D56G, D66H, L70M, T72R, Q97W
# VL: B1 VL with S24R, A26S, S30R, S49A, P54Q, F95Y
# notes: Tested as Fab
# B6: TPP-7777, affinity matured 6C12 Fab (Fab, V domains shown)
# VH: B1 VH with I48M, D56G, Y57W, D66G, L70M, T72R, Q97W, T100R
# VL: B1 VL with S24R, A26S, S49A, L53R, P54Q, F95Y
# notes: Tested as Fab
# B7: TPP-7787, affinity matured 6C12 Fab (Fab, V domains shown)
# VH: B1 VH with T33A, I48M, D56G, D66G, L70M, T72R, Q97W
# VL: B1 VL with S24R, A26S, S49A, L53R, P54Q, F95Y
# notes: Tested as Fab
# B8: TPP-7781, affinity matured 6C12 Fab (Fab, V domains shown)
# VH: B1 VH with I48M, S54K, D56G, Y57W, D66G, L70M, T72R
# VL: B1 VL with S24R, A26S, S30R, S49A, P54Q, F95Y
# notes: Tested as Fab
# B9: TPP-7793, affinity matured 6C12 Fab (Fab, V domains shown)
# VH: B1 VH with T31R, I48M, D56G, D66G, L70M, T72R, Q97W
# VL: B1 VL with S24R, A26S, S49A, P54Q, F95Y
# notes: Tested as Fab
# B10: TPP-7788, affinity matured 6C12 Fab (Fab, V domains shown)
# VH: B1 VH with I48M, S54K, D56G, Y57W, D66G, L70M, T72R
# VL: B1 VL with S24R, A26S, S49A, T52F, L53R, P54Q, F95Y
# notes: Tested as Fab
# B11: TPP-7778, affinity matured 6C12 Fab (Fab, V domains shown)
# VH: B1 VH with T33A, I48M, D56G, D66H, L70M, T72R
# VL: B1 VL with S24R, A26S, S30R, S49A, P54Q, F95Y
# notes: Tested as Fab
# B12: TPP-7795, affinity matured 6C12 Fab (Fab, V domains shown)
# VH: B1 VH with I48M, S54K, D56G, Y57W, D66G, L70M, T72R
# VL: B1 VL with S24R, A26S, S49A, T52F, P54Q, F95Y
# notes: Tested as Fab
# Biological target: T1, purified human glycophorin A protein …
# Assay: ELISA, IgG
row,EC50 [nM],Binder
1,0.282,B1

# Biological target: T5, Cynomolgus monkey glycophorin A on Cynomolgus monkey red blood cells (Cynomolgus monkey)
# T5 construct: whole, on cells; also called Cyno RBC; Cyno GPA
# Assay: FACS, RBC Cy01
# Experimental: (§1) The binding of the humanized variants to intact red blood cells (RBC) from humans (Hu01 to 03; 3 individuals), Rhesus monkey (Rh01 to 03; 3 individuals) and Cynomolgus monkey (Cy01 to 02; 2 individuals) was measured by fluorescence activated cell sorting (FACS).
row,fluorescence intensity,Binder
1,1660,B1

# Biological target: T5, Cynomolgus monkey glycophorin A on …
# Assay: FACS, RBC Cy02
# Experimental: as §1
row,fluorescence intensity,Binder
1,1770,B1

# Biological target: T2, human glycophorin A in the red blood …
# Assay: FACS, RBC Hu01
# Experimental: as §1
row,fluorescence intensity,Binder
1,2250,B1

# Biological target: T2, human glycophorin A in the red blood …
# Assay: FACS, RBC Hu02
# Experimental: as §1
row,fluorescence intensity,Binder
1,1850,B1

# Biological target: T2, human glycophorin A in the red blood …
# Assay: FACS, RBC Hu03
# Experimental: as §1
row,fluorescence intensity,Binder
1,2100,B1

# Biological target: T3, Rhesus monkey glycophorin A on Rhesus …
# Assay: FACS, RBC Rh01
# Experimental: as §1
row,fluorescence intensity,Binder
1,2330,B1

# Biological target: T3, Rhesus monkey glycophorin A on Rhesus …
# Assay: FACS, RBC Rh02
row,fluorescence intensity,Binder
1,2540,B1

# Biological target: T3, Rhesus monkey glycophorin A on Rhesus …
# Assay: FACS, RBC Rh03
# Experimental: as §1
row,fluorescence intensity,Binder
1,2370,B1

# Biological target: T4, human glycophorin A on human red blood …
# Assay: SPR (Biacore), Fab on human RBC membranes;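 also: human RBC membranes captured on an L1 sensor chip, Fab fragments passed over as analyte, binding kinetics read by surface plasmon resonance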
# Experimental: (§2) Kinetic analysis of the antibody binding to human red blood cell membranes was also performed using surface plasmon resonance (SPR) using a Biacore instrument. In this assay membranes prepared from human red blood cells were attached to a L1 sensor matrix and antibodies were flowed over the RBC membranes.
# (§3) The binding kinetics of the affinity matured Fab antibodies was also measured.
Kd [nM],koff [s⁻¹],kon [M⁻¹ s⁻¹],Binder
0.0829,0.00097,–,B2
0.111,0.00238,–,B3
0.0295,0.000413,–,B4
0.00799,0.000128,–,B5
0.0499,0.000371,7.44e+06,B6
0.0222,0.000139,6.25e+06,B7
0.0289,0.000547,–,B8
0.0246,0.000504,–,B9
0.136,0.000413,3.03e+06,B10
0.011,0.0011,–,B11

# Biological target: T4, human glycophorin A on human red blood …
# Assay: SPR (Biacore), Fab on human RBC membranes; T½ = 0.69/kd;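 as to Kd: human RBC membranes captured on an L1 sensor chip, Fab fragments passed over as analyte, binding kinetics read by surface plasmon resonance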;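 as to koff: human RBC membranes captured on an L1 sensor chip, Fab fragments passed over as analyte, binding kinetics read by surface plasmon resonance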
# Experimental: as §2, §3
row,Estimated T½ [min],Binder
1,12,B2
2,5,B3
3,28,B4
4,90,B5
5,31,B6
6,83,B7
7,21,B8
8,23,B9
9,28,B10
10,10,B11

# Biological target: T6, Cynomolgus monkey glycophorin A on Cynomolgus monkey red blood cells or red blood cell membranes (Cynomolgus monkey)
# T6 construct: whole, on cells; also called Cyno RBC; Cynomolgus monkey RBC membranes
# Assay: Fab 7 ug/ml on intact cyno RBC, unbound Fab by ELISA; pre-dilution
# Experimental: (§4) The binding of affinity matured Fab antibodies to intact Cynomolgus monkey RBC was measured. Cynomolgus monkey RBC were isolated from fresh anti-coagulated blood by centrifugation through a ficol gradient and washing in PBS buffer. RBC diluted to 1/10th of normal hematocrit were incubated with the Fab at a final concentration of 7 ug/ml for 1 hour at room temperature on a rotating shaker after which a sample was taken and the RBC were pelleted by centrifugation and the supernatant was collected. The remaining RBC suspension was diluted 200-fold in PBS buffer and incubated for a total of 2 hours at room temperature on a rotating shaker and samples were removed at 0, 5 min, 20 min, 1 h and 2 h and the RBC pelleted and the supernatant collected. […] The amount of Fab in the supernatants was then measured using an ELISA assay and the results used to calculate the percentage of the input Fab that was bound to the RBC.
row,percentage of input antibody bound [%],Binder
1,68,B3
2,94,B4
3,73,B12
4,86,B8
5,72,B9
6,81,B11

# Biological target: T4, human glycophorin A on human red blood …
# Assay: Fab 7 ug/ml on intact human RBC, unbound Fab by ELISA; pre-dilution
row,percentage of input antibody bound [%],Binder
1,96,B3
2,99,B4
3,95,B12
4,97,B8
5,98,B9
6,95,B11

# Biological target: T4, human glycophorin A on human red blood …
# Assay: SPR (Biacore), Fab on human RBC membranes; * not accurate, instrument limit;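 as to Kd: human RBC membranes captured on an L1 sensor chip, Fab fragments passed over as analyte, binding kinetics read by surface plasmon resonance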
# Experimental: as §2, §3
row,kon [M⁻¹ s⁻¹],Binder
1,1.17e+07,B2
2,2.15e+07,B3
3,1.4e+07,B4
4,1.61e+07,B5
5,1.89e+07,B8
6,2.05e+07,B9
7,1e+08,B11

# Biological target: T6, Cynomolgus monkey glycophorin A on …
# Assay: Fab on intact cyno RBC, unbound Fab by ELISA; 0 min after 200-fold dilution
row,percentage of input antibody bound [%],Binder
1,56,B3
2,88,B4
3,40,B8
4,58,B9
5,56,B11

# Biological target: T6, Cynomolgus monkey glycophorin A on …
# Assay: Fab on intact cyno RBC, unbound Fab by ELISA; 5 min after 200-fold dilution
row,percentage of input antibody bound [%],Binder
1,43,B3
2,68,B4
3,51,B12
4,34,B8
5,58,B9
6,54,B11

# Biological target: T4, human glycophorin A on human red blood …
# Assay: Fab on intact human RBC, unbound Fab by ELISA; 0 min after 200-fold dilution
# Experimental: (§5) The binding of affinity matured Fab antibodies to intact human RBC was also measured. Human RBC were isolated from fresh anti-coagulated normal human blood by centrifugation through a ficol gradient and washing in PBS buffer. RBC diluted to 1/10th of normal hematocrit were incubated with purified Fab antibodies at a final concentration of 7 ug/ml for 1 hour at room temperature on a rotating shaker after which a sample was taken and the RBC were pelleted by centrifugation and the supernatant was collected. The remaining RBC suspension was diluted 200-fold in PBS buffer and incubated for a total of 2 hours at room temperature on a rotating shaker and samples were removed at 0, 5 min, 20 min, 1 h and 2 h and the RBC pelleted and the supernatant collected. The amount of Fab in the supernatants was then measured using an ELISA assay and the results used to calculate the percentage of the input Fab that was bound to the RBC. […] The percentage that remains bound after 200-fold dilution of the RBC suspension is an indication of the overall strength of the binding to human RBC.
row,percentage of input antibody bound [%],Binder
1,82,B3
2,95,B4
3,86,B12
4,93,B8
5,96,B9
6,84,B11

# Biological target: T4, human glycophorin A on human red blood …
# Assay: Fab on intact human RBC, unbound Fab by ELISA; 5 min after 200-fold dilution
# Experimental: as §5
row,percentage of input antibody bound [%],Binder
1,48,B3
2,83,B4
3,74,B12
4,69,B8
5,92,B9
6,76,B11

# Biological target: T6, Cynomolgus monkey glycophorin A on …
# Assay: Fab on intact cyno RBC, unbound Fab by ELISA; 20 min after 200-fold dilution
# Experimental: as §4
row,percentage of input antibody bound [%],Binder
1,21,B3
2,59,B4
3,39,B12
4,32,B8
5,51,B9
6,48,B11

# Biological target: T6, Cynomolgus monkey glycophorin A on …
# Assay: Fab on intact cyno RBC, unbound Fab by ELISA; 60 min after 200-fold dilution
# Experimental: as §4
row,percentage of input antibody bound [%],Binder
1,7,B3
2,57,B4
3,29,B12
4,24,B8
5,51,B9
6,36,B11

# Biological target: T4, human glycophorin A on human red blood …
# Assay: Fab on intact human RBC, unbound Fab by ELISA; 20 min after 200-fold dilution
row,percentage of input antibody bound [%],Binder
1,12,B3
2,76,B4
3,63,B12
4,61,B8
5,86,B9
6,66,B11

# Biological target: T4, human glycophorin A on human red blood …
# Assay: Fab on intact human RBC, unbound Fab by ELISA; 60 min after 200-fold dilution
# Experimental: as §5
row,percentage of input antibody bound [%],Binder
1,15,B3
2,79,B4
3,63,B12
4,64,B8
5,85,B9
6,66,B11

# Biological target: T6, Cynomolgus monkey glycophorin A on …
# Assay: Fab on intact cyno RBC, unbound Fab by ELISA; 120 min after 200-fold dilution
# Experimental: as §4
row,percentage of input antibody bound [%],Binder
1,0,B3
2,52,B4
3,22,B12
4,19,B8
5,46,B9
6,27,B11

# Biological target: T4, human glycophorin A on human red blood …
# Assay: Fab on intact human RBC, unbound Fab by ELISA; 120 min after 200-fold dilution
# Experimental: as §5
row,percentage of input antibody bound [%],Binder
1,13,B3
2,77,B4
3,63,B12
4,59,B8
5,86,B9
6,64,B11

# Reference: patent publication US20190359687A1 (Bayer, published 2019)
